Experimental data reported in patent US20240352438A1, “MEANS AND METHODS FOR DETOXIFYING OCHRATOXIN A” (DSM Austria GmbH, priority 2021, published 2024).
Positions count from the first letter of the chain named.

B1: 173 (protein)
chain: MTTRTRILTAFLSLLAANACAADAAPAAPHTVVLRAARMFDGASGKLVDHPQLTIVGNKIVRIAQGDKAEVPAGAEVVDLGDATLLPGFIDAHVHLSGQSSDNWYGDFFDNMMRFPAEQALYGAYYARITLEAGFTSVRDVGSTDWVALGLRNAIDAGKVPGPRMLVSNYAVGSTGGHADQDPVPPHKLPLAGPLQGVCNGPEECRAAVRYQIKYGANVIKFMPSGGVLSLSDPVDAPELSQDEMNAVIGESHAWGRKVAAHAHGDKAAKMAVAAGVDSIEHGSFIEDDTLRAMKAKNVYLVPTISAAAHVEEKIGTYPPVIAEKGRAAAAHLRQTFRHAVQIGVPIALGTDAGVGAHGSNAREFRYMVENGLTPAQALLAGTANAARLLGTFDRVGTLEAGKLADVVAVPGNPIADITVTERPLFVMKDGVVVRRDAVR
modifications: exemplary polypeptide
B2: 182 (protein)
chain: B1 chain with Y170R, V184I, A308I, Y318F
modifications: exemplary polypeptide
B3: 201 (protein)
chain: B1 chain with W104Y, V184I, A308I, Y318F
modifications: exemplary polypeptide
B4: 193 (protein)
chain: B1 chain with V184I, A308I, Y318F, G356A
modifications: exemplary polypeptide
B5: 188 (protein)
chain: B1 chain with V184I, A308I, Y318F, L333V
modifications: exemplary polypeptide
B6: 180 (protein)
chain: B1 chain with Y170E, V184I, A308I, Y318F
modifications: exemplary polypeptide
B7: 183 (protein)
chain: B1 chain with V184I, A308I, Y318F, A330L
modifications: exemplary polypeptide
B8: 190 (protein)
chain: B1 chain with V184I, A308I, Y318F, G354S
modifications: exemplary polypeptide
B9: 174 (protein)
chain: B1 chain with A308V
modifications: exemplary polypeptide
B10: 189 (protein)
chain: B1 chain with V184I, A308I, Y318F, G354L
modifications: exemplary polypeptide
B11: 202 (protein)
chain: B1 chain with V184I, A308I, Y318F, I322L
modifications: exemplary polypeptide
B12: 186 (protein)
chain: B1 chain with V184I, A308I, Y318F, L333I
modifications: exemplary polypeptide
B13: 195 (protein)
chain: B1 chain with V184I, A308I, Y318F, G356P
modifications: exemplary polypeptide
B14: 200 (protein)
chain: B1 chain with W104P, V184I, A308I, Y318F
modifications: exemplary polypeptide
B15: 184 (protein)
chain: B1 chain with V184I, A308I, Y318F, A330M
modifications: exemplary polypeptide
B16: 192 (protein)
chain: B1 chain with V184I, A308I, Y318F, G354V
modifications: exemplary polypeptide
B17: 196 (protein)
chain: B1 chain with V184I, A308I, Y318F, G356V
modifications: exemplary polypeptide
B18: 175 (protein)
chain: B1 chain with Y318F, G354A
modifications: exemplary polypeptide
B19: 187 (protein)
chain: B1 chain with V184I, A308I, Y318F, L333M
modifications: exemplary polypeptide
B20: 198 (protein)
chain: B1 chain with W104F, V184I, A308I, Y318F
modifications: exemplary polypeptide
B21: 179 (protein)
chain: B1 chain with V184I, A308V, G354A
modifications: exemplary polypeptide
B22: 197 (protein)
chain: B1 chain with V184I, A308I, Y318F, G356Y
modifications: exemplary polypeptide
B23: 181 (protein)
chain: B1 chain with Y170F, V184I, A308I, Y318F
modifications: exemplary polypeptide
B24: 194 (protein)
chain: B1 chain with V184I, A308I, Y318F, G356F
modifications: exemplary polypeptide
B25: 177 (protein)
chain: B1 chain with A308I, G354A
modifications: exemplary polypeptide

Experiment: Enzymatic activity comparison: activity remaining after 65° C. for 10 min at pH 6.0, relative to SEQ ID NO: 1
Type: physicochemical
Conditions: not given
Description: To compare the temperature behavior and thermostability of selected enzymes to one another, enzyme was incubated at 65° C. for 10 min at pH 6.0. The enzymatic activity remaining after incubation was compared to the remaining activity of the enzyme of SEQ ID NO: 1 after incubation, the latter being set to 100%, see Table 16.

Row | Molecule | Enzymatic activity remaining after incubation, compared to SEQ ID NO: 1 (set to 100%)
1 | B1 | 53%
2 | B2 | 38%
3 | B3 | 54%
4 | B4 | 42%
5 | B5 | 45%
6 | B6 | 28%
7 | B7 | 75%
8 | B8 | 15%
9 | B9 | 54%
10 | B10 | 19%
11 | B11 | 25%
12 | B12 | 42%
13 | B13 | 38%
14 | B14 | 88%
15 | B15 | 46%
16 | B16 | 41%
17 | B17 | 57%
18 | B18 | 13%
19 | B19 | 36%
20 | B20 | 55%
21 | B21 | 17%
22 | B22 | 29%
23 | B23 | 47%
24 | B24 | 45%
25 | B25 | 20%

Experiment: OTA detoxification activity assay (specific activity, fluorescence reduction ex/em 390/450 nm)
Type: biochemical
Conditions: pH 6.0; SEQ ID NO: 1 = 100%
Method in brief: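 Recombinant enzyme preparation with 200 ng/mL OTA in 100 mM sodium phosphate, at pH 6.0 and pH 7.5, 37° C. Degradation followed as the fall in fluorescence at ex/em 390/450 nm. Specific activity taken from the initial linear slope; one unit degrades 1 μmol OTA per min at a starting OTA of […].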

Row | Molecule | Specific OTA detoxification activities in % compared to the enzyme of SEQ ID NO: 1, pH 6.0
26 | B1 | 27%
27 | B2 | 98%
28 | B3 | 134%
29 | B4 | 81%
30 | B5 | 84%
31 | B6 | 91%
32 | B7 | 58%
33 | B8 | 122%
34 | B9 | 45%
35 | B10 | 82%
36 | B11 | 59%
37 | B12 | 142%
38 | B13 | 148%
39 | B14 | 18%
40 | B15 | 103%
41 | B16 | 69%
42 | B17 | 48%
43 | B18 | 121%
44 | B19 | 51%
45 | B20 | 111%
46 | B21 | 49%
47 | B22 | 59%
48 | B23 | 138%
49 | B24 | 78%
50 | B25 | 94%

Same assay, conditions: pH 7.5; SEQ ID NO: 1 = 100%

Row | Molecule | Specific OTA detoxification activities in % compared to the enzyme of SEQ ID NO: 1, pH 7.5
51 | B1 | 53%
52 | B2 | 91%
53 | B3 | 121%
54 | B4 | 85%
55 | B5 | 52%
56 | B6 | 83%
57 | B7 | 55%
58 | B8 | 85%
59 | B9 | 59%
60 | B10 | 22%
61 | B11 | 47%
62 | B12 | 115%
63 | B13 | 100%
64 | B14 | 25%
65 | B15 | 76%
66 | B16 | 30%
67 | B17 | 58%
68 | B18 | 108%
69 | B19 | 58%
70 | B20 | 84%
71 | B21 | 66%
72 | B22 | 29%
73 | B23 | 112%
74 | B24 | 52%
75 | B25 | 90%
